Here are results for nine sequences from the DeepSol protein solubility set.

The data set can be described thus: soluble on expression in E. coli; label from the status in PepcDB or PDB records.
With “MGSDKIHHHHHHMIINKHVMRSTNEKQVLQQVINEGPISRSQISRNLSLNKVTVSDIYNQLLRTQFIKEIGCGVSTKNGGRKPVMAELNVNYGFVASIDMTADAVKLMYSRLNGKILHFQSFKTSDMTLTDVIDLIEDQLRNVDDYGTIHGLMGVAIALDGIIYENKILKTPIKGLTHFDLAKYLRDKLRIPVVLEKKANLTAVFERDFHDNEIFDNVVSVVVRDQIHAGIVADSRLYSGHEGEAGEVGTALLEDRHVEDHLASVNDYASEKALWARLKAIKHVERLDLTTVKHDYINHDPEVTKVFDDFVYYLSKVIANVSTAFAPDVVVLNTTVLEILPQLLTNVRESTAKLTSPSRQVPIIATKNVQSAALLGGASVIIHQALGLESLKMQFS”, the “soluble on expression in E. coli” value is given as “not soluble”. Take “MGHHHHHHSHGTRQELSGNTKSRESIQEPRSDYYNHEVPDIDLSDCEFPHVIEIYDFPQEFRTEDLLRVFCSYQKKGFDIKWVDDTHALGVFSSPITARDALGIKHTMVKIRPLSQATRAAKAKARAYAEFLQPAKERPETSAALARRLVISALGVRSKQSKTEREAELKKLQEARERKRLEAKQREDIWEGRDQSTV”: the “soluble on expression in E. coli” value is on record as “soluble”. Next, “MKVYLHFSPQFFANTYLIGNEITKEAVIIDPAKITEKMIHQIEKNEFNLKAVLLTHDLEHPYETGLNTILKIYSPKVYAGSCFSENVTINTLRGDGCIDVAGYSVRYFAIPAHSSYSYMFQIENMVFTGTSLSAGMIGQTSNMYAERTLRNILKTKLMCFEDNLIIMPFYGPPTSIGVERKYNASFFQDLEHHHHHH”: “not soluble”; “SAKNAYTKLGTDDNAQLLDIRATADFRQVGSPNIKGLGKKAVSTVYNGEDKPGFLKKLSLKFKDPENTTLYILDKFDGNSELVAELVALNGFKSAYAIKDGAEGPRGWLNSSLPWIEPKKT”: “soluble”. The value for “MKESLIEAKVMDYGKLKDIQKEILYYKLYVDALKKKGIKEKVDPPPTLPKSIVSSVLTGGIPRDGPLQIELVSNDVVKIKEYNTLVKIQSDSRLPLYAIVEYRDTDIRVYLAYRENPSIVGLDLGLRHLITIVAIKDTKPWKVRFFDEPKLMEKFANFLSENQGIIKLEEMKSNAKRIIYEAVSFIEDLEPKVVAMENLEYFETKTGKGLRALQNMLENEIRRRGIRYRKIDPYNTSRVCAKCGYKKGEILGSLFVCPACGYKADRDYNAAYNIALKCYYTCLEHHHHHH” was “not soluble”. The value for “MGSDKIHHHHHHMSDPTWDGSPQYRNELLRFMPADDLALLAPHMQRCALPVRMMLVTPNIPIEAVYFIEQGIGSVVASTASGHDAEIGFIGFEGMTGSALVMGDDRAAHACFVQLEGEAIRIDAAPFNAALAASPTLRLFLLHFVNTLHTQTGCTALVNARLKLEERLARWLLMCDDRVPGESLAMTHEFLSIMLGVRRPGVTVALQLLEGRALIRSRRGEIVIRDRAGLLELANGGYGQAEAEYARLIGEIMPG” was “not soluble”; that for “MAHHHHHHMASAVVAPPRGIKADPRASPNQGRRNGDGGRVLHAVPEEANKRRREREEAQHGAARYRGRNGQAVAELHGTARVKVNLVRRGTSKRRKGGRVGHLHHKPRRAPRPLAKHICPRALGETRISDGRPRPPQPRSDERHGSEGVVAVGAHVPYGSAPLRRRKHRNEAGRQQVRRVRHVRRLVPRVEGEVKPHVQLQRLTRRNHAHVPTQRGEADELGTLLHSNHVKVTAHRRGRRCRPKASARAAAGRERRRHARSRRSAPPAQVRRIDARRVAQKRSTHVHNRVIPDRSNAVRTRRGGRNDTLALRQHETHRRAAARGDLSVPHHNGAVGPHLHLRRQRVPRRHARRQRHIAVLNSHTLVPRAAVGARHAVHPDTRRQPCSRGV” was “not soluble”. “LKPHIAVAISGSIYNEAVIKEAFHIAQKEHAKFTAIYIDVFEKNRQYKDSQKQVHQHLMLAKSLGAKVKVVYSQTVALGLDEWCKNQDVTKLIIGQHIRNKWRDFFNTPLIDHLMSFEHS”: the “soluble on expression in E. coli” value is “not soluble”. The value for “KTVINVVLQEDTQILDEVVVTALGLKREQKALGYAVTEVKGDDLKAANTISPVAALQGKVAGVEIRQSDGGMFGATKIQIRGASTLKGNNQPIYVIDGVILDNSTSGNTTMDWDAGNNNANDYGNELKNLNPDDFETVSVLKGAAATALYGSRGLNGAVVITTKSGKG” was “not soluble”.
